Experimental findings from US12091454B2, “Humanized anti-human neurotensin receptor 1 antibodies and their uses” (DEVELOPMENT CENTER FOR BIOTECHNOLOGY, priority 2022, dated 2024) are described below.

Values joined by “and” are separate entries in the source; they are usually repeats but may differ in a detail not shown here. Identical values can stand only once.

The target in one series is NTSR1 protein (Homo sapiens, UniProt P30989). The series can be described thus: SPR (BIACORE T200) multi-cycle kinetic assay. The following applies: 25° C., one-to-one Langmuir binding model. Here is the method:
To know the binding kinetics differences among individual anti-NTSR1 antibodies, surface plasmon resonance (SPR) measurement with BIACORE™ T200 (CYTIVA® Inc.) was used as previously described (Karlsson & Falt, (1997) J. Immunol Methods 200:121-133). Carboxymethylated dextran biosensor chips (CM5, CYTIVA® Inc.) were activated with N-ethyl-N′-(3-dimethylaminopropyl)-carbodiimide hydrochloride (EDC) and N-hydroxysuccinimide (NHS) according to the supplier's instructions. NTSR1 protein was diluted with 10 mM sodium acetate, pH 4.0, into 5 μg/ml before injection at a flow rate of 10 μL/minute to achieve approximately 1500 response units (RU) of coupled protein followed by the injection of 1 M ethanolamine to block unreacted groups. For kinetics measurements, two-fold serial dilutions of anti-NTSR1 mAb (0.3125 nM to 40 nM) were injected in HBS-EP+BIACORET™ running buffer provided by the manufacturer (CYTIVA® Inc.) at 25° C. at a flow rate of 30 μL/min, and binding responses on the NTSR1 protein were corrected by subtraction of responses on a blank flow cell. Association rates (kon or Ka) and dissociation rates (koff or Kd) were calculated using a simple one-to-one Langmuir binding model with separate fittings of kon and koff. (CYTIVA® BIACORET™ Insight Evaluation Software).
(In general: Surface plasmon resonance follows binding to a sensor surface in real time, without labels.)

A short description of series [1]: In vivo pharmacokinetic analysis (MSD ECL total antibody assay). The following applies: BALB/c mice, 5 mg/kg via the tail vein; for MRT / Vss / t½: total antibody; for in vivo half live: 5 mg/kg. The text has this:
This Example used Meso Scale Discovery (MSD) Electrochemiluminescent (ECL) method to conduct the PK analysis of the anti-NTSR1 antibodies αNTSR1 (AKT2), αNTSR1 (AKT2 Hu/Hu) and αNTSR1 (AKT2 Hu/Hd) in BALB/c mice samples. The MSD assay can measure both conjugated and unconjugated antibodies. As illustrated in this example, for total antibody assay (including conjugated and unconjugated antibodies), the plate is coated with goat anti-human IgG, which can capture all humanized antibodies (conjugated and unconjugated).
The mice were administered at a dose level of 5 mg/kg via the tail vein. Blood samples were then obtained at different time points for determining the concentrations of αNTSR1 (AKT2), αNTSR1 (AKT2 Hu/Hu) and αNTSR1 (AKT2 Hu/Hd) in mice by MESO QuickPlex SQ 120 method. The PK parameters of αNTSR1 (AKT2), αNTSR1 (AKT2 Hu/Hu) and αNTSR1 (AKT2 Hu/Hd) were analyzed by noncompartmental analysis using PHOENIX™ for WinNonlin Program, version 6.3.

The test system of series [2] is FaDu human head and neck cancer xenograft. Put plainly: Xenograft model of anti-NTSR1 ADCs (head and neck cancer). The format is in vivo, male NOD SCID mice. Here is the method:
The aim of this study was to evaluate the in vivo anti-tumor efficacy of αNTSR1 (AKT2) 4seco-DUBA, αNTSR1 (AKT2 Hu/Hu) 4seco-DUBA, and αNTSR1 (AKT2 Hu/Hd) 4seco-DUBA in FaDu human head and neck cancer xenograft model in male NOD SCID mice.
Formulations respectively comprising test article αNTSR1 (AKT2) 4seco-DUBA, test article αNTSR1 (AKT2 Hu/Hu) 4seco-DUBA, test article αNTSR1 (AKT2 Hu/Hd) 4seco-DUBA, and Hu IgG were formulated by diluting the stock with a 25 mM sodium citrate buffer (pH 6.5). […]
The FaDu cells were maintained in vitro as a monolayer culture in RPMI-1640 medium supplemented with 10% fetal bovine serum at 37° C. in an atmosphere of 5% CO2 in air. The tumor cells were routinely sub-cultured twice weekly by trypsin-EDTA treatment. The cells growing in an exponential growth phase were harvested and counted for tumor inoculation.
Male NOD SCID mice at age of 6-7 weeks were quarantined for one week. Five mice were housed in each cage. All animals were hosted in the animal facility with a 12-h light/12-h dark cycle at 19-25° C. Animals had free access to rodent pellet foods and water ad libitum.
FaDu cells were subcutaneously (SC) implanted (4×10^6 cells in 1:1 PBS/matrigel mixture at 0.1 mL per mouse) into the right flank of male NOD SCID mice. When the average tumor volume had reached about 200 mm^3, the mice were randomly divided into 7 groups (N=6 per group). Each of Hu IgG, αNTSR1 (AKT2) 4seco-DUBA (5 mg/kg), αNTSR1 (AKT2 Hu/Hu) 4seco-DUBA (5 mg/kg), and αNTSR1 (AKT2 Hu/Hd) 4seco-DUBA (5 mg/kg) was intravenously administered twice weekly for 3 weeks.
The tumor volumes, body weights, mortality, and signs of overt toxicity were monitored and recorded three times weekly for 28 days. Tumor volumes (mm^3) were measured three times per week using calipers and calculated according to the formula: Tumor Volume=(w^2×l)/2, where w=width and l=length in diameter (mm) of the tumor. The percentages of tumor growth inhibition (TGI) were calculated using the following formula: % TGI=[1−(T/C)]×100%, where T and C represent the mean tumor volumes of the treatment group and the control group, respectively. A TGI (%) value≥58% was considered as indicating significant anti-tumor activity. Animals were weighed three times weekly until the completion of the study.

Another series relates to FaDu cells. The series can be described thus: In vitro cytotoxicity study (CELLTITER-GLO). Type of series: cell-based, human. The following applies: 72 hours treatment, cell viability, read-out: Relative IC50. Here is the method: Human head and neck cancer cell line FaDu was respectively grown in RPMI-1640 medium (ATCC® modification) supplemented with 10% fetal bovine serum. The FaDu cell lines were maintained in an atmosphere of 5% CO2 in a humidified 37° C. incubator. The day before treatment, cells were collected and seeded into 96-well plates (4,000 cells per well). Each treatment was performed in eight triplicate data points. After the treatment of 72 hours, cell viability was assessed by CELLTITER-GLO® kit (PROMEGA®) according to the manufacturer's instruction. At the end of the incubation, luminescence was measured using a SpectraMax i3x Multi Mode Detection Platform (MOLECULAR DEVICES®). Compound cytotoxicity was evaluated in comparison to cells treated with 0.05% PBS (ADCs) or 0.05% DMSO (toxic payload). IC50 values were calculated by fitting viability data with a four-parameter logistic equation using GRAPHPAD® prism 5.0 software.
A general note: In ATP-based viability assays light output follows the ATP content of the culture.

Chain of NTSR1 protein (P30989 whole entry): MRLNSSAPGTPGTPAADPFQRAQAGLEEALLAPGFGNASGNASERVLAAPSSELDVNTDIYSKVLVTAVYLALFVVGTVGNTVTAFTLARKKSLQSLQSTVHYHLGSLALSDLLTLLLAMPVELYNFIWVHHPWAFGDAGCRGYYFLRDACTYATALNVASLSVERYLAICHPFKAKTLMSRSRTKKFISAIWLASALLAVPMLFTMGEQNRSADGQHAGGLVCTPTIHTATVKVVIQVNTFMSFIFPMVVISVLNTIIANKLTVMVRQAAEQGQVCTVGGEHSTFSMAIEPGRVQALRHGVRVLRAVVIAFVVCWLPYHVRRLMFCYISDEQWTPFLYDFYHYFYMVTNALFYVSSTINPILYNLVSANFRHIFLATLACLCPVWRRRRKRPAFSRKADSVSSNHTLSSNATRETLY

B1: AKT2: affinity-matured mouse-human chimera anti-NTSR1 antibody, AKT2 VH (SEQ ID NO: 9) and AKT2 VL (SEQ ID NO: 10) (antibody, V domains shown)
VH: QVQLQQPGSVLVRPGASVKLSCKASGYAFTSSWIHWAKQRPGQGLEWIGQIRPNSGNTYYNEKFKVKATLTVDTSSSTAYVDLSSLTSEDSAVYYCARYHYGFDYWGQGTLVTVSS
VL: DVLMTQTPLSLPVSLGDQASISCRSSQSIVHSNGNTYLEWYLQKPGQSPKLLIYKVSNRFSGVPDRFSGSGSGTDFTLKISRVEAEDLGVYYCFQGAHLPWTFGGGTKLEIK
Broadly, the MRT is a mean duration of stay, worked out from the concentration-time curve. As a reminder, the Vss is the apparent volume that relates the amount in the body to the concentration in plasma or blood. Low readings indicate little distribution into tissue, high ones wide distribution into tissue. In general, t½ refers to how long it takes for the measured level to halve. Lower therefore signals rapid decline. For the molecule B1, in the series with NTSR1 protein, the “Ka (kon, association rate)” value came to 406800 M⁻¹ s⁻¹ and the “Kd (koff, dissociation rate)” value was determined as 0.0006558 s⁻¹. Also, in series [1], the MRT was 89.6 ± 6.6 h, the distribution volume (Vss) worked out at 0.159 ± 0.010 L/kg and the t½ is listed as 71.7 ± 5.1^ h. Moreover, the “in vivo half live” value in series [1] (listed as αNTSR1 (AKT2)) was 71.7 ± 5.1 h and 71 h. For the same molecule, in series [2] (5 mpk, IV, BIW × 3), the “TGI % (1-T/C) Day 0” value is on record as 0.0%, the “TGI % (1-T/C) Day 5” value is 11.1%, the “TGI % (1-T/C) Day 7” value is on record as 34.8% and the “TGI % (1-T/C) Day 10” value is given as 31.0%. For the same molecule, in series [2] (5 mpk, IV, BIW × 3), the “TGI % (1-T/C) Day 12” value is 31.1%, the “TGI % (1-T/C) Day 14” value worked out at 29.9% and the “TGI % (1-T/C) Day 17” value is 21.6%.

B2: αNTSR1 (AKT2) 4seco-DUBA: antibody-drug conjugate of chimera antibody AKT2 with seco-DUBA payload (conjugate)
heavy chain: QVQLQQPGSVLVRPGASVKLSCKASGYAFTSSWIHWAKQRPGQGLEWIGQIRPNSGNTYYNEKFKVKATLTVDTSSSTAYVDLSSLTSEDSAVYYCARYHYGFDYWGQGTLVTVSS
light chain: DVLMTQTPLSLPVSLGDQASISCRSSQSIVHSNGNTYLEWYLQKPGQSPKLLIYKVSNRFSGVPDRFSGSGSGTDFTLKISRVEAEDLGVYYCFQGAHLPWTFGGGTKLEIK
For orientation: IC50 means the point on the concentration scale where inhibition reaches its midpoint. With B2, the IC50 with FaDu cells amounted to 36.9 nM. In addition, the “FaDu tumor growth” value in series [2] (5 mg/kg, Day 10 to Day 17) was “significantly reduced FaDu tumor growth”. Also, in series [2] (5 mpk, IV, BIW × 3), the “TGI % (1-T/C) Day 0” value is 0.0%, the “TGI % (1-T/C) Day 5” value is 28.5%, the “TGI % (1-T/C) Day 7” value worked out at 54.4% and the “TGI % (1-T/C) Day 10” value worked out at 68.5%. Also, in series [2] (5 mpk, IV, BIW × 3), the “TGI % (1-T/C) Day 12” value is reported as 83.8%, the “TGI % (1-T/C) Day 14” value turned out to be 90.5% and the “TGI % (1-T/C) Day 17” value was found to be 95.3%.

B3: AKT2 HuHu: humanized anti-NTSR1 antibody, AKT2 HuVH (SEQ ID NO: 16) and AKT2 HuVL (SEQ ID NO: 17) (antibody, V domains shown)
VH: QVQLVQSGAEVKKPGASVKVSCKASGYAFTSSWIHWVRQAPGQGLEWMGQIRPNSGNTYYNEKFKVRVTMTRDTSTSTVYMELSSLRSEDTAVYYCARYHYGFDYWGQGTLVTVSS
VL: DIVMTQTPLSLSVTPGQPASISCRSSQSIVHSNGNTYLEWYLQKPGQSPQLLIYKVSNRFSGVPDRFSGSGSGTDFTLKISRVEAEDVGVYYCFQGAHLPWTFGQGTKVEIK
As for B3, in the series with NTSR1 protein, the “Ka (kon, association rate)” value came out at 787700 M⁻¹ s⁻¹ and the “Kd (koff, dissociation rate)” value was found to be 0.0008084 s⁻¹. In series [1], this molecule displayed a mean residence time MRT of 252 ± 116 h, a distribution volume (Vss) of 0.120 ± 0.026 L/kg and a t½ of 182 ± 90.8 h. In addition, the “in vivo half live” value in series [1] (listed as αNTSR1 (AKT2 Hu/Hu)) came out at 182 ± 90.8 h. Besides, in series [2] (5 mpk, IV, BIW × 3), the “TGI % (1-T/C) Day 0” value came out at 0.0%, the “TGI % (1-T/C) Day 5” value is on record as 33.4%, the “TGI % (1-T/C) Day 7” value was 37.3% and the “TGI % (1-T/C) Day 10” value worked out at 13.4%. Moreover, in series [2] (5 mpk, IV, BIW × 3), the “TGI % (1-T/C) Day 12” value is on record as 6.7%, the “TGI % (1-T/C) Day 14” value is reported as 25.6% and the “TGI % (1-T/C) Day 17” value is 26.9%. Also, the “TGI % (1-T/C) Day 3” value in series [2] (5 mpk, IV, BIW × 3, Day 3) is recorded as 17.7%.

B4: AKT2 HuHd: humanized anti-NTSR1 antibody, AKT2 HuVH (SEQ ID NO: 16) and AKT2 HdVL (SEQ ID NO: 15) (antibody, V domains shown)
VH: QVQLVQSGAEVKKPGASVKVSCKASGYAFTSSWIHWVRQAPGQGLEWMGQIRPNSGNTYYNEKFKVRVTMTRDTSTSTVYMELSSLRSEDTAVYYCARYHYGFDYWGQGTLVTVSS
VL: DIQMTQSPSSLSASVGDRVTITCRSSQSIVHSNGNTYLEWYQQKPGKAPKLLIYKVSNRFSGVPSRFSGSGSGTDFTLTISSLQPEDFATYYCFQGAHLPWTFGQGTKVEIK
As to B4, in the series with NTSR1 protein, the “Ka (kon, association rate)” value was found to be 461400 M⁻¹ s⁻¹ and the “Kd (koff, dissociation rate)” value was 0.0006575 s⁻¹. In addition, in series [1], the MRT was 209 ± 62.5 h, the Vss was determined as 0.135 ± 0.020 L/kg and the t½ worked out at 156 ± 48.6 h. The “in vivo half live” value in series [1] (listed as αNTSR1 (AKT2 Hu/Hd)) came to 156 ± 48.6 h. Also, in series [2] (5 mpk, IV, BIW × 3), the “TGI % (1-T/C) Day 0” value is listed as 0.0%, the “TGI % (1-T/C) Day 5” value was determined as 13.1%, the “TGI % (1-T/C) Day 7” value is 28.4% and the “TGI % (1-T/C) Day 10” value was 36.2%. In addition, in series [2] (5 mpk, IV, BIW × 3), the “TGI % (1-T/C) Day 12” value was 40.9%, the “TGI % (1-T/C) Day 14” value is given as 37.8% and the “TGI % (1-T/C) Day 17” value came out at 32.5%.
